According to PMC7073468, “Small RNA‐binding protein RapZ mediates cell envelope precursor sensing and signaling in Escherichia coli” (The EMBO Journal, 2020):

Tests used:
[1] = target: RapZ (Escherichia coli, UniProt P0A894); test: SPR (Biacore, single-cycle kinetics); also co-purification detected by HILIC-MS/MS; type: binding
[2] = target: T1, Strep-RapZ (N-terminally Strep-tagged RapZ) (Escherichia coli, UniProt P0A894 1-284); test: SPR; Biacore T200, 25°C; Strep-RapZ (200–400 RU) captured on a CM5 chip coated with Strep-Tactin XT; QseE-His10 or QseF-His10 injected at 10 nM, 50 nM, 2 × 100 nM, 250 nM, 500 nM and 1,000 nM, multicycle; HBS-EP buffer (10 mM HEPES pH 7.4, 150 mM NaCl, 3 mM EDTA, 0.005% P20); overall affinities; conditions: both partners purified
T1 construct: it is not measured here; also called YhbJ; source: purified recombinant protein (procedure in the Appendix Supplementary Methods); not shown: Strep, N-terminal, kept
T1 sequence (looked up): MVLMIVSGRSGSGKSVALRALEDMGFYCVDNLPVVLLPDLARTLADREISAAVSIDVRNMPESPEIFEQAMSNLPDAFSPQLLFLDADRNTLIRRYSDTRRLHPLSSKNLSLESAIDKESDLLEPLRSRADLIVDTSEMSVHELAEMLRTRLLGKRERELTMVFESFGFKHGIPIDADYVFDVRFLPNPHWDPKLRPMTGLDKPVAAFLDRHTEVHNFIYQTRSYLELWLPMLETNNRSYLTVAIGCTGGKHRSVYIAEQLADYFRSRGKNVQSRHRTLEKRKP

Molecule	Kd [1]	Kd [2]	koff [2]	kon [2]
N[C@H]1C(O)O[C@H](COP(=O)(O)O)[C@@H](O)[C@@H]1O (stereo partly shown) [GlcN6P]	0.186 µM			
QseE’-His10 (soluble cytoplasmic C-terminal part of kinase QseE, aa 196–475, with the HAMP and transmitter domains) (domain or fragment, Escherichia coli, UniProt P52101 196-475, looked up, Histidine kinase QseE (a.k.a. GlrK, YfhK) of Escherichia coli, cytoplasmic part aa 196-475 (HAMP and transmitter domains); also called His10-tagged QseE’; GlrK; source: purified recombinant protein (procedure in the Appendix Supplementary Methods)) MIIGPVKNIERMINRLGEGRSLGNSVSFSGPSELRSVGQRILWLSERLSWLESQRHQFLRHLSHELKTPLASMREGTELLADQVVGPLTPEQKEVVSILDSSSRNLQKLIEQLLDYNRKQADSAVELENVELAPLVETVVSAHSLPARAKMMHTDVDLKATACLAEPMLLMSVLDNLYSNAVHYGAESGNICLRSSLHGARVYIDVINTGTPIPQEERAMIFEPFFQGSHQRKGAVKGSGLGLSIARDCIRRMQGELYLVDESGQDVCFRIELPSSKNTK		12 µM	0.054 s⁻¹	4500 M⁻¹ s⁻¹
